pKd: −log10 of the molar value.
Molecular target: HER-3 (human, on cells) (human) (UniProt P21860)
Experiment: indirect FACS Scatchard analysis on cells

pKd: 7.86
Substance: U1-46 (antibody)

From US20110229406A1
